Measurements reported in article PMC7736791 (Nucleic Acids Research, 2020).
“And” between values parts separate entries of the source, which are not always exact repeats. Identical values can stand only once. Like-named read-outs stand apart in the source and are kept apart here.

B1: AAV2 Rep68 origin binding domain (OBD) (domain or fragment, adeno-associated virus 2 (AAV2))
chain: MPGFYEIVIKVPSDLDGHLPGISDSFVNWVAEKEWELPPDSDMDLNLIEQAPLTVAEKLQRDFLTEWRRVSKAPEALFFVQFEKGESYFHMHVLVETTGVKSMVLGRFLSQIREKLIQRIYRGIEPTLPNWFAVTKTRNGAGGGNKVVDECYIPNYLLPKTQPELQWAWTNMEQYLSACLNLTERKRLVAQHLTHVSQTQEQNKENQNPN

Legend:
[1] = target: AAV2 Rep68* (Rep68 C151S) (adeno-associated virus 2 (AAV2)) (UniProt P03132); test: cryo-EM structure
[2] = target: AAV2 Rep68* (Rep68 C151S) (adeno-associated virus 2 (AAV2)) (UniProt P03132); test: cryo-EM structure; remark: listed apart in the source
[3] = target: AAV2 Rep68* (Rep68 C151S) (adeno-associated virus 2 (AAV2)) (UniProt P03132); test: cryo-EM structure; remark: listed apart in the source
[4] = target: AAV2 Rep68* (Rep68 C151S) (adeno-associated virus 2 (AAV2)) (UniProt P03132); test: cryo-EM structure; remark: listed apart in the source
[5] = target: AAV2 Rep68* (Rep68 C151S) (adeno-associated virus 2 (AAV2)) (UniProt P03132); test: cryo-EM structure; remark: listed apart in the source
cross-linking = target: the molecule itself; test: cross-linking

Molecule	stoichiometry N [1]	stoichiometry N [2]	stoichiometry N [3]	stoichiometry N [4]	stoichiometry N [5]	stoichiometry N (cross-linking)
AAV2 Rep68* (Rep68 C151S) (from UniProt P03132 1-536) (enzyme)	7	8	6 and 7	6	7	
B1						8
